The text below walks through data of patent publication US20110318377.

The target of data set [1] is T1, unmodified Tat ARM peptide (amino acids 45-58).
T1 chain: ISYGRKKRRQRRRP

For data set [2], the target named is T2, Tat ARM peptide (amino acids 45-58) monomethylated at K51.
T2 chain: ISYGRKKRRQRRRP

Data set [3] concerns the target T3, Tat ARM peptide carrying an acetyl group at position 50.
T3 chain: ISYGRKKRRQRRRP

Data set [4] addresses full-length synthetic Tat protein (72 amino acids), unmodified.
The target of data set [5] is T4, Tat ARM peptide (amino acids 45-58) K50, 51AA.
T4 chain: ISYGRAARRQRRRP

The target in data set [6] is histones purified from calf thymus.
In data set [7] the target is T5, Tat ARM peptide (amino acids 45-58) K51A.
T5 chain: ISYGRKARRQRRRP

The target of data set [8] is T6, Tat ARM peptide (amino acids 45-58) K50A.
T6 chain: ISYGRAKRRQRRRP

B1: recombinant GST-p300 HAT (protein)
chain: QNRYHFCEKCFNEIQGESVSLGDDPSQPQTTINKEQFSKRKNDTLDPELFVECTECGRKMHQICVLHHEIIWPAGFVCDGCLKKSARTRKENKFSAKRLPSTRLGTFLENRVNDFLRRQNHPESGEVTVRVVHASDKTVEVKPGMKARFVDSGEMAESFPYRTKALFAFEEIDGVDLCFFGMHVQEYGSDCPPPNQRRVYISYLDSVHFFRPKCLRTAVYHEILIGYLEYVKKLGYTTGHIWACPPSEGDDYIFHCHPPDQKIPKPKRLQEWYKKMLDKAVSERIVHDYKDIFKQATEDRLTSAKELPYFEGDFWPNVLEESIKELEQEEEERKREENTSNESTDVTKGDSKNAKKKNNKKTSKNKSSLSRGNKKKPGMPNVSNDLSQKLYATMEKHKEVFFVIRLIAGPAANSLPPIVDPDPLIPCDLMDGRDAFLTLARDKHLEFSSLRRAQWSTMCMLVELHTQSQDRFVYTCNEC
B1: the “in vitro acetylation with 14C-AcCoA, autoradiography” value in data set [1] and in data set [2] was “Acetylation by p300 occurred regardless of the methylation status of K51” throughout.

B2: recombinant Set9 (Upstate) (protein)
chain: MDSDDEMVEEAVEGHLDDDGLPHGFCTVTYSSTDRFEGNFVHGEKNGRGKFFFFDGSTLEGYYVDDALQGQGVYTYEDGGVLQGTYVDGELNGPAQEYDTDGRLIFKGQYKDNIRHGVCWIYYPDGGSLVGEVNEDGEMTGEKIAYVYPDERTALYGKFIDGEMIEGKLATLMSTEEGRPHFELMPGNSVYHFDKSTSSCISTNALLPDPYESERVYVAESLISSAGEGLFSKVAVGPNTVMSFYNGVRITHQEVDSRDWALNGNTLSLDEETVIDVPEPYNHVSKYCASLGHKANHSFTPNCIYDMFVHPRFGPIKCIRTLRAVEADEELTVAYGYDHSPPGKSGPEAPEWYQVELKAFQATQQK
On to B2, for which the “in vitro methylation with radiolabeled SAM; MALDI-TOF” value in [3] is “No methylation signal was observed”; in data set [7], “Methylation by Set9 was abrogated when K51 or both lysines were mutated”; in data set [8] it was “mutation of K50 alone had no effect”. The “in vitro methylation with radiolabeled SAM, autoradiography” value in data set [4] is “The Tat protein was methylated in response to increasing amounts of Set9 enzyme”; with recombinant GST-IκBα it was “methylation by Set9 was not observed with another recombinant protein, GST-IκBα”; in data set [6] it was “Set9 also methylated purified histones, predominantly histone H3, a known substrate of Set9”. The “in vitro methylation with radiolabeled SAM” value in [5] was “Methylation by Set9 was abrogated when K51 or both lysines were mutated”. In data set [1], the “MALDI-TOF mass shift after methylation reaction” value is “a shift of 14 Da was detected in the methylated ARM peptide, corresponding to the addition of a single methyl group”. In addition, the “radioactive in vitro methylation of short Tat peptides” value in data set [1] is “Methylation was observed with one peptide (45-58 amino acids) corresponding to the arginine-rich motif (ARM) of Tat”.
